# T1: Bfl-1, Q16548
# T1 chain: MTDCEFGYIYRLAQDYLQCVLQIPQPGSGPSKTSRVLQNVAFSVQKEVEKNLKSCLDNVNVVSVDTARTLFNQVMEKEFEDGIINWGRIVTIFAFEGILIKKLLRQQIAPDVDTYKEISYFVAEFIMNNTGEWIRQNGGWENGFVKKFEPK
# T2: Mcl-1, Q07820
# T2 chain: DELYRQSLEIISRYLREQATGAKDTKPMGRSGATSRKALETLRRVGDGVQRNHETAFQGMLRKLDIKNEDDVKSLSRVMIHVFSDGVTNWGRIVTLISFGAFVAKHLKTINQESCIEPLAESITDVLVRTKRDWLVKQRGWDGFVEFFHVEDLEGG
# Molecular target: Bcl-xL, Q07817
# Test: peptide SPOT array, c-Myc-tagged receptor at 1 uM or 100 nM, anti-c-Myc-Cy3
# Sequence of Bcl-xL, Q07817 (Q07817 1-209): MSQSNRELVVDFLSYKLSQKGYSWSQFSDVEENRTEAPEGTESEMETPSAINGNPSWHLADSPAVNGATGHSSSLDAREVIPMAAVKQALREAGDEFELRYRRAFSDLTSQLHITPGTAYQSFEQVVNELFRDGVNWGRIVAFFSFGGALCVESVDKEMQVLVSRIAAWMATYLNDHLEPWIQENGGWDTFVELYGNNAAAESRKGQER
row,SPOT signal as a fraction of Bim BH3's signal on the same receptor and array,Binder
1,0.06,LSIIYTLVEIFQNILDTNLADFTAGL [SLC26A4]
2,0.09,SFLSAHCASHLAWFGDSLTSLSQRLQ [TMEM214]
3,0.06,DSLLWKLAGLLRESGDVVLSGCSTLS [STK11IP]
4,0.06,MSLFLRVVFSDTMFGDLFEEEYSTVS [USP40]
5,0.55,PALLVHWAKCLQKMLRGLNSSYDQQE [RGPD2]
6,0.86,TAGLRPGARLLRVCLQTLPSLRPEAA [SIPA1]
7,0.2,AIILCNVCGNDCTDCDRFLHLHRRTK [MYCBP2]
8,0.05,NNNMDVESRTDATMGDTLASRGLLDA
9,0.06,LFWTPLLVVLLAGLLDTEAQQTTLHP [SGCA]
10,0.06,MSILTIASAVLEFVGDGIYNNTMGHV [TAP1]
11,0.05,LNLLMISVAFLRVIGDQLEKLCDSLL [SLC38A8]
12,0.11,LLDFFMVSILFSKLGDLLHKLQFVLT [PCNXL2]
13,1.03,ISSYMVLAPVDGYLGDRYNRKYLMCG [SPNS1]
14,0.67,PYLSKHRADRMRRLLDFLNQESFDLA [SMPD2]
15,0.04,NNNMDVESRTMATMGDTLASRGLLDA

# Second part, the binder before the results:
row,Binder,SPOT signal as a fraction of Bim BH3's signal on the same receptor and array
1,SWFIQSLCAMDKQYADKLEFMHILTR [CASP3],0.08
2,SQEPLEKAQLDALVGDQLIQSHHYAA,0.06
3,MEMYQPSAVVLQCGLDSLSGDRLGCF [HDAC2],0.06
4,VHKHSRLAEVLQLGSDILPQYKQEAP [KCNH1],0.17
5,SQEPLEKAQLLALVGDQLIQSHHYAA,0.06
6,SEIMHSFAKCIEVMLDGCLNNEHFEE,0.1
7,PAKKMTLSEIYRWILDNFPYYKNAGI [FOXJ2],0.82
8,SEIMHSFAKCDEVMGDGCLNNEHFEE,0.09
9,MPYMEAVIHEIQRFGDVIPMSLARRV [CYP2A6],0.15
10,APGEEDLCAAFNVILDNVGKDWRRLA [FADD],0.06
11,CHGLRELALNYHLLLDELLLALSSEK [FBXL3],0.07
12,PKKKMTLSEIDQWICDNFPYYREAGS [FOXJ3],0.08
13,LWAAQRYGRELRRMLDEFVDSFKKGL [BAD],0.49
14,VLELHPGAQRDHIGCDEVYYLGEGEA [HEXDC],0.05
15,CGEWTRRSLHDRVLGRQLILPTDKGV [FAM149A],0.91
16,SKEVAILCSFDLGLGDSCFNTQLLSI [MFSD11],0.08
17,VLAPVQLGKWLVLFCDEINLPDMDKY [DYNC1H1],0.36

# Molecular target: T1, Bfl-1, Q16548
# Test: as above
row,SPOT signal as a fraction of Bim BH3's signal on the same receptor and array,Binder
1,0.03,LSIIYTLVEIFQNILDTNLADFTAGL [SLC26A4]
2,0.09,SFLSAHCASHLAWFGDSLTSLSQRLQ [TMEM214]
3,0.04,DSLLWKLAGLLRESGDVVLSGCSTLS [STK11IP]
4,0.04,MSLFLRVVFSDTMFGDLFEEEYSTVS [USP40]
5,0.39,PALLVHWAKCLQKMLRGLNSSYDQQE [RGPD2]
6,0.57,TAGLRPGARLLRVCLQTLPSLRPEAA [SIPA1]
7,0.13,AIILCNVCGNDCTDCDRFLHLHRRTK [MYCBP2]
8,0.06,NNNMDVESRTDATMGDTLASRGLLDA
9,0.08,LFWTPLLVVLLAGLLDTEAQQTTLHP [SGCA]
10,0.04,MSILTIASAVLEFVGDGIYNNTMGHV [TAP1]
11,0.05,LNLLMISVAFLRVIGDQLEKLCDSLL [SLC38A8]
12,0.06,LLDFFMVSILFSKLGDLLHKLQFVLT [PCNXL2]
13,0.68,ISSYMVLAPVDGYLGDRYNRKYLMCG [SPNS1]
14,0.53,PYLSKHRADRMRRLLDFLNQESFDLA [SMPD2]
15,0.06,NNNMDVESRTMATMGDTLASRGLLDA

# More lines, now with the values behind:
row,Binder,SPOT signal as a fraction of Bim BH3's signal on the same receptor and array
1,SWFIQSLCAMDKQYADKLEFMHILTR [CASP3],0.05
2,SQEPLEKAQLDALVGDQLIQSHHYAA,0.04
3,MEMYQPSAVVLQCGLDSLSGDRLGCF [HDAC2],0.03
4,VHKHSRLAEVLQLGSDILPQYKQEAP [KCNH1],0.09
5,SQEPLEKAQLLALVGDQLIQSHHYAA,0.04
6,SEIMHSFAKCIEVMLDGCLNNEHFEE,0.04
7,PAKKMTLSEIYRWILDNFPYYKNAGI [FOXJ2],0.45
8,SEIMHSFAKCDEVMGDGCLNNEHFEE,0.03
9,MPYMEAVIHEIQRFGDVIPMSLARRV [CYP2A6],0.1
10,APGEEDLCAAFNVILDNVGKDWRRLA [FADD],0.04
11,CHGLRELALNYHLLLDELLLALSSEK [FBXL3],0.04
12,PKKKMTLSEIDQWICDNFPYYREAGS [FOXJ3],0.06
13,LWAAQRYGRELRRMLDEFVDSFKKGL [BAD],0.42
14,VLELHPGAQRDHIGCDEVYYLGEGEA [HEXDC],0.04
15,CGEWTRRSLHDRVLGRQLILPTDKGV [FAM149A],0.86
16,SKEVAILCSFDLGLGDSCFNTQLLSI [MFSD11],0.03
17,VLAPVQLGKWLVLFCDEINLPDMDKY [DYNC1H1],0.08

# Molecular target: T2, Mcl-1, Q07820
# Test: as above
row,SPOT signal as a fraction of Bim BH3's signal on the same receptor and array,Binder
1,0.05,LSIIYTLVEIFQNILDTNLADFTAGL [SLC26A4]
2,0.06,SFLSAHCASHLAWFGDSLTSLSQRLQ [TMEM214]
3,0.05,DSLLWKLAGLLRESGDVVLSGCSTLS [STK11IP]
4,0.05,MSLFLRVVFSDTMFGDLFEEEYSTVS [USP40]
5,0.45,PALLVHWAKCLQKMLRGLNSSYDQQE [RGPD2]
6,0.63,TAGLRPGARLLRVCLQTLPSLRPEAA [SIPA1]
7,0.16,AIILCNVCGNDCTDCDRFLHLHRRTK [MYCBP2]
8,0.03,NNNMDVESRTDATMGDTLASRGLLDA
9,0.05,LFWTPLLVVLLAGLLDTEAQQTTLHP [SGCA]
10,0.05,MSILTIASAVLEFVGDGIYNNTMGHV [TAP1]
11,0.05,LNLLMISVAFLRVIGDQLEKLCDSLL [SLC38A8]
12,0.09,LLDFFMVSILFSKLGDLLHKLQFVLT [PCNXL2]
13,0.69,ISSYMVLAPVDGYLGDRYNRKYLMCG [SPNS1]
14,0.52,PYLSKHRADRMRRLLDFLNQESFDLA [SMPD2]
15,0.03,NNNMDVESRTMATMGDTLASRGLLDA

# Further lines, the binder ahead of its results:
row,Binder,SPOT signal as a fraction of Bim BH3's signal on the same receptor and array
1,SWFIQSLCAMDKQYADKLEFMHILTR [CASP3],0.06
2,SQEPLEKAQLDALVGDQLIQSHHYAA,0.03
3,MEMYQPSAVVLQCGLDSLSGDRLGCF [HDAC2],0.04
4,VHKHSRLAEVLQLGSDILPQYKQEAP [KCNH1],0.21
5,SQEPLEKAQLLALVGDQLIQSHHYAA,0.04
6,SEIMHSFAKCIEVMLDGCLNNEHFEE,0.06
7,PAKKMTLSEIYRWILDNFPYYKNAGI [FOXJ2],0.42
8,SEIMHSFAKCDEVMGDGCLNNEHFEE,0.04
9,MPYMEAVIHEIQRFGDVIPMSLARRV [CYP2A6],0.1
10,APGEEDLCAAFNVILDNVGKDWRRLA [FADD],0.06
11,CHGLRELALNYHLLLDELLLALSSEK [FBXL3],0.06
12,PKKKMTLSEIDQWICDNFPYYREAGS [FOXJ3],0.1
13,LWAAQRYGRELRRMLDEFVDSFKKGL [BAD],0.41
14,VLELHPGAQRDHIGCDEVYYLGEGEA [HEXDC],0.04
15,CGEWTRRSLHDRVLGRQLILPTDKGV [FAM149A],0.72
16,SKEVAILCSFDLGLGDSCFNTQLLSI [MFSD11],0.04
17,VLAPVQLGKWLVLFCDEINLPDMDKY [DYNC1H1],0.05

# From PMC4072508, “Genome-Wide Prediction and Validation of Peptides That Bind Human Prosurvival Bcl-2 Proteins” (PLoS Computational Biology, 2014)
